According to the supplement of paper PMC10567573:

B1: TRIM55 (parent)
chain: YKSFSKEQQTMDNLEKQLICPICL
B2: SAT2 (parent)
chain: GYGIYYFIYSTWKGRTIYLEDIYV

Variants of: B1
Experiment: protein stability index of a GFP-peptide fusion (GPS, HEK-293T) (PSI 1-6); higher = more stable
Conditions: c terminus: a fixed tail appended
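Further: lentivirally expressed fusions sorted by FACS into six bins by GFP to DsRed ratio, PSI derived from sequencing read proportions per bin multiplied by bin number.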

Variant	protein stability index
YKSFSKEQQTMDNLEKDLICPICL	2.76
YKSFSKEQQTMDNLEKTLICPICL	1.98
YKSFSKEQQTMDNLEKHLICPICL	2.23
YKSFSKEQQTMDNLEKQLICPIFL	2.04
YKSFSKEQQTMDNTEKQLICPICL	3.03
YKSFSKEQQTCDNLEKQLICPICL	2.47
YKSFSKEQQTDDNLEKQLICPICL	2.68
YKSFSKEQQTMDNLETQLICPICL	2.23
YKSFSKEQQTMDNLERQLICPICL	2.03
YKSFSKEQQTMDNLEIQLICPICL	1.42
GKSFSKEQQTMDNLEKQLICPICL	2.35
AKSFSKEQQTMDNLEKQLICPICL	2.5
YKSFSKEQQTMDNLEKQLICPICD	2
YKSFSKEQQTMDNLEKQLICPICG	2.46
YKSFSKEQQTMDNLEKQLICPICE	2.13
YKSFSKEQQTMDNLEKQLIMPICL	1.82
YKSFSKEQQTMDNLEKQLILPICL	2.29
YKSFSKEQQTMDNLEKQLIDPICL	2.51
YKSFSKEQQTMDNLEKQLIAPICL	1.54
YKSFSKEQQTMDNLEKQLICQICL	2.4
YKSFSKEQQTMDNLEKQLICAICL	1.66
YCSFSKEQQTMDNLEKQLICPICL	1.93
YKSFSKEQQTMDNLEKQLQCPICL	2.81
YKSFSKEQQTMDNLEKQLRCPICL	2.63
YKSFSKEQQTMDNLEKQLSCPICL	2.37

Variant	protein stability index
YKSFSKEQQTMDNLEKQLWCPICL	1.51
YKSFSEEQQTMDNLEKQLICPICL	2.04
YKSFSKEQWTMDNLEKQLICPICL	1.67
YKSFSKEQTTMDNLEKQLICPICL	1.57
YKSFSKEQDTMDNLEKQLICPICL	2.8
YKSFSKEQQTMDNLEKQLICPVCL	1.96
YKSFSKWQQTMDNLEKQLICPICL	1.83
YKSFSKCQQTMDNLEKQLICPICL	1.98
YKSFSKEQQAMDNLEKQLICPICL	1.74
YKSFSKELQTMDNLEKQLICPICL	1.75
YKSFSKEAQTMDNLEKQLICPICL	2.65
YKSFSKEQQTMDNLWKQLICPICL	1.45
YKSFSKEQQTMDNLPKQLICPICL	2.51
YKSFSKEQQTMDNLSKQLICPICL	1.79
YKSFSKEQQTMDNLMKQLICPICL	2.55
YKSFQKEQQTMDNLEKQLICPICL	2.19
YKSFCKEQQTMDNLEKQLICPICL	2.73
YKSFEKEQQTMDNLEKQLICPICL	2.26
YKSFPKEQQTMDNLEKQLICPICL	2.07
YKRFSKEQQTMDNLEKQLICPICL	2.43
YKKFSKEQQTMDNLEKQLICPICL	2.44
YKAFSKEQQTMDNLEKQLICPICL	2.02
YKSFSKEQQTMDNLEKQPICPICL	2.87
YKSFSKEQQTMDNLEKQMICPICL	2.62

Variants of: B2
Experiment: as above
Conditions: c terminus: a fixed tail appended

Variant	protein stability index
GYGIYYFIYSTWKGRTIYLPDIYV	2.91
GYGIYYFIYSTWKGRTIYLGDIYV	2.26
GYGIYYFIYSTWKGRTIYLMDIYV	4.05
GYGIYYFIYSTWKGRTIYLADIYV	3.56
GYGIYYFIYSTWKGRTIYLHDIYV	2.91
GYGIYYFIYSTWKGRTIYLTDIYV	2.4
GYGIYYFIYSTWKGRTIYLWDIYV	2.35
GYGIYYFIYSTWKGRTIYLNDIYV	4.06
GYGIYYFIYSTWKGRTIYLFDIYV	2.84
GYGIYYFIYSTWKGRTIYLCDIYV	3.04
GYGIYYFIYSTWKGRTIYLSDIYV	3.32
GYGIYYFIYSTWKGRTIYLRDIYV	3.97
GYGIYYFIYSTWKGRTIYLLDIYV	2.1
GYGIYYFIYSTWKGRTIYLVDIYV	3.13
GYGIYYFIYSTWKGNTIYLEDIYV	2.37
GYGIYYFIYSTWKGSTIYLEDIYV	2.1
GYGIYYFIYSTWKGDTIYLEDIYV	2.9
GYGIYYFIYSTWKGTTIYLEDIYV	3.03
GYGIYYFIYSTWKGPTIYLEDIYV	2.17
GYGIYYFIYSTWKGGTIYLEDIYV	2.53
GYGIYYFIYSTWKGLTIYLEDIYV	3.07
GYGIYYFIYSTWKGHTIYLEDIYV	2.96
GYGIYYFIYSTWKGFTIYLEDIYV	4.58

Variant	protein stability index
GYGIYYFIYSTWKGCTIYLEDIYV	3.31
GYGIYYFIYSTWKGATIYLEDIYV	4.7
GYGIYYFIYSTWKGETIYLEDIYV	3.72
GYGIYYFIYSTWKGWTIYLEDIYV	3.58
GYGIYYFIYSTWKGMTIYLEDIYV	3.05
GYGIYYFIYSTWKGRTIYLEDIPV	2.43
GYGIYYFIYSTWKGRTIYLEDICV	2.65
GYGIYYFIYSTWKGRTIYLEDILV	1.08
GYGIYYFIYSTWKGRTIYLEDIMV	2.71
GYGIYYFIYSTWKGRTIYLEDIFV	2.37
GYGIYYFIYSTWKGRTIYLEDIHV	3.07
GYGIYYFIYSTWKGRTIYLEDIAV	2.89
GYGIYYFIYSTWKGRTIYLEDIWV	2.35
GYGIYYFIYSTWKGRTIYLEDINV	3.18
GYGIYYFIYSTWKGRTIYFEDIYV	2.37
GYGIYYFIYSTWKGRTIYIEDIYV	4.11
GYGIYYFIYSTWKGRTIYNEDIYV	1.73
GYGIYYFIYSTWKGRTIYSEDIYV	3.57
GYGIYYFIYSTWKGRTIYGEDIYV	3.7
GYGIYYFIYSTWKGRTIYYEDIYV	4
GYGIYYFIYSTWKGRTIYHEDIYV	2.98
GYGIYYFIYSTWKMRTIYLEDIYV	1.94
